Data on eight molecules can be found in patent US20090181018A1 (Eli Lilly, published 2009).

The Kd is the free concentration of one partner at which half of the binding sites on the other are occupied at equilibrium, for simple one-to-one binding. Broadly, the koff is the first-order rate constant of dissociation. High values mean fast dissociation, low ones slow dissociation. As a reminder, the kon is the rate constant with which the complex forms. A higher kon goes with fast association.

Assay [1] addresses T1, human des-acyl ghrelin (human).
T1 construct: also called unacylated human ghrelin
Description: SPR (BIAcore 2000), Mab amine-coupled to CM5 chip, des-acyl ghrelin as analyte, about 25 C. The method, then: (§1) Except where noted, all reagents and materials are purchased from BIAcore® AB (Uppsala, Sweden). All measurements are performed at about 25° C. All samples containing human ghrelin (full length, C-8 acylated or des-acyl) and anti-ghrelin Mabs are diluted in HBS-EP buffer (150 mM sodium chloride, 3 mM EDTA, 0.005% (w/v) surfactant P-20, and 10 mM HEPES, pH 7.4). For all of the Mabs, the antibody is directly coupled to a CM5 chip using the amine-coupling chemistry described below, aiming for a surface density of between 800-1000 response units (RU). Flow cells (1-4) are activated for 7 minutes with a 1:1 mixture of 0.1 M N-hydroxysuccinimide and 0.1 M 3-(N,N-dimethylamino)propyl-N-ethylcarbodiimide at a flow rate of 10 μl/min. The Mab is diluted to 10 μg/mL in 10 mM sodium acetate, pH 4.5, and manually injected over all four flow cells at a flow rate of 10 μl/min. The surface density is monitored, and additional capture antibody is injected as needed to each individual cell until all flow cells reach a surface density of 800-1000 RU. Surfaces are blocked with a seven minute injection of 1 M ethanolamine-HCl, pH 8.5(10 μl/min). To ensure complete removal of any noncovalently bound capture antibody, 15 μl of 10 mM glycine, pH 1.5, are injected twice. Running buffer for kinetic experiments is HBS-EP buffer (150 mM sodium chloride, 3 mM EDTA, 0.005% (w/v) surfactant P-20, and 10 mM HEPES, pH 7.4).
(§2) Collection of kinetic binding data is performed at maximum flow rate (100 μl/min) and a low surface density to minimize mass transport effects. Each analysis cycle consists of: (i) 200 μl injection (2 min.) of ghrelin (concentration range of 50 nM to 0.39 nM in 2-fold dilution increments) over all four flow cells with flow cell 1 as the reference flow cell; (ii) 20 min. dissociation (buffer only flow); (iii) regeneration of chip surface with a 15 sec injection of 10 mM glycine, pH 1.5; and (iv) a 2 min. stabilization time before the start of the next cycle. The signal is monitored as flow cell 2 minus flow cell 1, flow cell 3 minus flow cell 1, and flow cell 4 minus flow cell 1. Samples and a buffer blank are injected in duplicate in a random order. Data are processed using BIAevaluation v.4.1 software and data are fit to a 1:1 binding model in either BIAevaluation v.4.1 or CLAMP global analysis software.

Assay [2] concerns the target T2, C-8 acylated human ghrelin (1-28) (human, n-octanoyl (C8) group on Ser3).
T2 construct: 28-residue ghrelin, octanoylated at Ser3; the analyte in SPR and the agonist in the FLIPR assay; also called C8 acylated ghrelin; full length, C-8 acylated human ghrelin
Description: SPR (BIAcore 2000), Mab amine-coupled to CM5 chip, ghrelin as analyte, about 25 C. The procedure: as §1, §2
In general terms: In SPR one partner is held on a chip, and binding of the other changes the refractive index at the surface.

For assay [3], the target named is T2, C-8 acylated human ghrelin (1-28). Description: SPR (BIAcore 2000), Fab captured by goat anti-human kappa, ghrelin as analyte, about 25 C. The method, then: The affinity (KD) of humanized/optimized anti-ghrelin Fabs disclosed in Example 1 for C-8 acylated human ghrelin (1-28) is measured using a BIAcore™ 2000 instrument containing a CM5 sensor chip. Except where noted, all reagents and materials are purchased from BIAcore™ AB (Uppsala, Sweden). Measurements are performed at about 25° C. Samples containing human ghrelin are dissolved in HBS-EP buffer (150 mM sodium chloride, 3 mM EDTA, 0.005% (w/v) surfactant P-20, and 10 mM HEPES, pH 7.4). A capture antibody, goat anti-mouse Kappa (Southern Biotechnology, Inc.) for the D4 and D4 7.1 Fabs, and goat anti-human kappa (Jackson ImmunoResearch) for all other Fabs, hereafter termed “capture antibody,” is immobilized onto flow cells using amine-coupling chemistry. Flow cells (1-4) are activated for 7 minutes with a 1:1 mixture of 0.1 M N-hydroxysuccinimide and 0.1 M 3-(N,N-dimethylamino)propyl-N-ethylcarbodiimide at a flow rate of 10 μl/min. Goat anti-mouse Kappa or goat anti-human kappa (30 μg/mL in 10 mM sodium acetate, pH 4.5) is manually injected over all 4 flow cells at a flow rate of 10 μl/min. The surface density is monitored and additional capture antibody is injected if needed to individual cells until all flow cells reach a surface density of 4500-5000 response units (RU). Surfaces are blocked with a 7 minute injection of 1 M ethanolamine-HCl, pH 8.5 (10 μl/min). To ensure complete removal of any noncovalently bound capture antibody, 15 μl of 10 mM glycine, pH 1.5, is injected twice. Running buffer used for kinetic experiments contains 10 mM HEPES, pH 7.4, 150 mM NaCl, 0.005% P20.
Collection of kinetic binding data is performed at maximum flow rate (100 μl/min) and a low surface density to minimize mass transport effects. Each analysis cycle consists of: (i) capture of 300-350 RU of Fabs (BioSite) by injection of 5-10 μl of 5 μg/ml solution over flow cell 2, 3 and 4 for different Fabs at a flow rate of 10 μl/min., (ii) 200 μl injection (2 min.) of human ghrelin (concentration range of 50 nM to 0.39 nM in 2-fold dilution increments) over all 4 flow cells with flow cell 1 as the reference flow cell, (iii) 20 min. dissociation (buffer flow), (iv) regeneration of capture antibody surface with a 15 seq injection of 10 mM glycine, pH 1.5, (v) a 30 sec blank injection of running buffer, and (vi) a 2 min. stabilization time before the start of the next cycle.

Assay [4] has the same target. Description: SPR (BIAcore 2000), half-life of the complex calculated from koff. The procedure: as §1, with “Surfaces are blocked with a seven minute injection of 1 M ethanolamine-HCl, pH 8.5(10 μl/min). To ensure complete removal of any noncovalently bound capture antibody, 15 μl of 10 mM glycine, pH 1.5, are injected twice. Running buffer for kinetic experiments is HBS-EP buffer (150 mM sodium chloride, 3 mM EDTA, 0.005% (w/v) surfactant P-20, and 10 mM HEPES, pH 7.4).” left out
Collection of kinetic binding data is performed at maximum flow rate (100 μl/min) and a low surface density to minimize mass transport effects. […] The signal is monitored as flow cell 2 minus flow cell 1, flow cell 3 minus flow cell 1, and flow cell 4 minus flow cell 1. […]

Assay [5] has the same target. Nature of the assay: SPR (BIAcore 2000), half-life of the complex. The method, then:
The affinity (KD) of humanized/optimized anti-ghrelin Fabs disclosed in Example 1 for C-8 acylated human ghrelin (1-28) is measured using a BIAcore™ 2000 instrument containing a CM5 sensor chip. Except where noted, all reagents and materials are purchased from BIAcore™ AB (Uppsala, Sweden). Measurements are performed at about 25° C. Samples containing human ghrelin are dissolved in HBS-EP buffer (150 mM sodium chloride, 3 mM EDTA, 0.005% (w/v) surfactant P-20, and 10 mM HEPES, pH 7.4). A capture antibody, goat anti-mouse Kappa (Southern Biotechnology, Inc.) for the D4 and D4 7.1 Fabs, and goat anti-human kappa (Jackson ImmunoResearch) for all other Fabs, hereafter termed “capture antibody,” is immobilized onto flow cells using amine-coupling chemistry. Flow cells (1-4) are activated for 7 minutes with a 1:1 mixture of 0.1 M N-hydroxysuccinimide and 0.1 M 3-(N,N-dimethylamino)propyl-N-ethylcarbodiimide at a flow rate of 10 μl/min. Goat anti-mouse Kappa or goat anti-human kappa (30 μg/mL in 10 mM sodium acetate, pH 4.5) is manually injected over all 4 flow cells at a flow rate of 10 μl/min. The surface density is monitored and additional capture antibody is injected if needed to individual cells until all flow cells reach a surface density of 4500-5000 response units (RU). Surfaces are blocked with a 7 minute injection of 1 M ethanolamine-HCl, pH 8.5 (10 μl/min). […]

The target is the same in assay [6]. Description: cell-based or functional assay.

Changes are numbered by the printed parent chain. Numbers in names are those of the source.

T1 sequence (peptide, as listed by the source): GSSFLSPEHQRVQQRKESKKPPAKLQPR

B1: Mab D52N (antibody, rat IgG1, V domains shown)
VH: QVQLVQSGAEVKKPGASVKVSCKVSGYTFTSTWMHWVRQAPGKGLEWMGYINPSTGYTEYTQKFKDRVTMTEDTSTDTAYMELSSLRSEDTAVYYCATDGYDEDYWGQGTTVTVSS
VL: DIVMTQSPLSLPVTPGEPASISCRSSDSLGHSSGHTYLSWYLQKPGQSPGLLIYKVSNRFDGVPDRFSGSGSGTDFTLKISRVEAEDVGVYYCSQSTLVPWTFGQGTKLEIKD
In assay [1], B1 came in with a Kd of 1.05 nM, a koff of 0.0343 s⁻¹ and a kon of 3.26e+07 M⁻¹ s⁻¹.

B2: Mab A4 (antibody, V domains shown)
VH: B1 VH with N52D, E103F
VL: B1 VL with S33T, H35F
In the case of B2, binding in assay [2] was put at a Kd of 0.074 nM. Besides, the kon in assay [2] was determined as 4.44e+06 M⁻¹ s⁻¹; in assay [1] it was 4.56e+06 M⁻¹ s⁻¹.

B3: Fab S28D (Fab, V domains shown)
VH: B1 VH with N52D
VL: DIVMTQSPLSLPVTPGEPASISCRSSDSLGHSDGNTYLSWYLQKPGQSPGLLIYKVSNRFDGVPDRFSGSGSGTDFTLKISRVEAEDVGVYYCSQSTLVPWTFGQGTKLEIK
notes: The Fab was captured by goat anti-human kappa
As to B3, in assay [3], the kon was determined as 3e+07 M⁻¹ s⁻¹.

B4: Mab A5 (antibody, rat IgG1, V domains shown)
VH: B1 VH with N52D, E103Y
VL: B1 VL with S28H, S33T, H35Y
For B4, the t1/2 in assay [4] is 201 min. The off-rate constant (koff) in assay [2] turned out to be 5.74e-05 s⁻¹; in assay [1], 6.67e-05 s⁻¹.

B5: Fab A2 (Fab, V domains shown)
VH: B1 VH with N52D, E103F
VL: B3 VL with D33T, N35F
notes: The Fab was captured by goat anti-human kappa, so it has a human kappa light chain
B5 came in with a t1/2 in assay [5] of 43 min. Also, in assay [3], the Kd stood at 0.043 nM, the koff stood at 0.00027 s⁻¹ and the kon turned out to be 6.34e+06 M⁻¹ s⁻¹.

B6: Fab T32Y (Fab, V domains shown)
VH: B1 VH with T32Y, N52D
VL: B3 VL with D33S, N35H
notes: as for B3
B6: in assay [5], the t1/2 was determined as 1 min. In assay [3], this molecule gave a Kd of 1 nM and a koff of 0.00875 s⁻¹.

B7: Mab D27Q (antibody, rat IgG1, V domains shown)
VH: B1 VH with N52D
VL: B1 VL with D27Q
As for B7, in assay [6], the “IC50, in vitro FLIPR calcium assay (intracellular calcium in AV12 cells expressing GHS-R1a)” value turned out to be 1.12 nM. Also, in assay [1], the Kd is 0.176 nM.

B8: Mab S34H (antibody, rat IgG1, V domains shown)
VH: B1 VH with N52D
VL: B1 VL with S39H
For the molecule B8, in assay [4], the t1/2 was 1 min. Also, in assay [2], binding was put at a Kd of 0.4 nM, the koff is 0.0169 s⁻¹ and the association rate constant (kon) was 4.24e+07 M⁻¹ s⁻¹.
